Legend:
[1] = target: IL-RI-Fc (a fusion of IL-1RI and Fc); test: phage-displayed dAb; trypsin 10 µg/ml, 1 hr, room temp; biopanning on 1 nM IL-1RI-Fc
[2] = target: IL-RI-Fc (a fusion of IL-1RI and Fc); test: phage-displayed dAb; trypsin 100 µg/ml, overnight, room temp; biopanning on 1 nM IL-1RI-Fc
IL-1R1 = test: Receptor Binding Assay, inhibition of IL-1 binding to IL-RI
[3] = target: IL-RI-Fc (a fusion of IL-1RI and Fc); test: phage-displayed dAb; trypsin 10 µg/ml, overnight, 37 C; biopanning on 1 nM IL-1RI-Fc
[4] = target: IL-RI-Fc (a fusion of IL-1RI and Fc); test: phage-displayed dAb; no trypsin, overnight, 37 C; biopanning on 1 nM IL-1RI-Fc
[5] = target: IL-RI-Fc (a fusion of IL-1RI and Fc); test: phage-displayed dAb; no trypsin, 1 hr, room temp; biopanning on 1 nM IL-1RI-Fc
[6] = target: IL-RI-Fc (a fusion of IL-1RI and Fc); test: phage-displayed dAb; trypsin 100 µg/ml, 1 hr, room temp; biopanning on 1 nM IL-1RI-Fc
[7] = target: IL-RI-Fc (a fusion of IL-1RI and Fc); test: phage-displayed dAb; no trypsin, overnight, room temp; biopanning on 1 nM IL-1RI-Fc
[8] = target: IL-RI-Fc (a fusion of IL-1RI and Fc); test: phage-displayed dAb; trypsin 10 µg/ml, overnight, room temp; biopanning on 1 nM IL-1RI-Fc
[9] = target: IL-RI-Fc (a fusion of IL-1RI and Fc); test: phage-displayed dAb; trypsin 100 µg/ml, overnight, 37 C; biopanning on 1 nM IL-1RI-Fc

Sequence of IL-RI-Fc (a fusion of IL-1RI and Fc) (P14778 whole entry, the tested form may be a part): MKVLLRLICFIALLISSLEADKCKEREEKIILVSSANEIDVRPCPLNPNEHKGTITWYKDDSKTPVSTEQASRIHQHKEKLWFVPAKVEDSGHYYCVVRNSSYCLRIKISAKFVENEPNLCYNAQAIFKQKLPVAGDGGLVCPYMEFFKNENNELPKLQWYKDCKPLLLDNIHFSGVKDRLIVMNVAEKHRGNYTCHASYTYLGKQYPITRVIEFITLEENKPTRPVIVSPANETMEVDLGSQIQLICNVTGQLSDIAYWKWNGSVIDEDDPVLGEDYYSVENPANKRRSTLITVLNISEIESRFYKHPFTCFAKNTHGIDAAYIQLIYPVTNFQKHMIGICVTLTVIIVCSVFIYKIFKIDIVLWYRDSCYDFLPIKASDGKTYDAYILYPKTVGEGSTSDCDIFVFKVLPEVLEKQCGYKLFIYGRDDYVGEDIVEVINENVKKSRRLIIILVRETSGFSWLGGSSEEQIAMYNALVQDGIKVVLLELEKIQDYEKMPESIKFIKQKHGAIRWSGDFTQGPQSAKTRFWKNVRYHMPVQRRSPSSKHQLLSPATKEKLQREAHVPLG
Sequence of IL-1R1 (P14778 whole entry, the tested form may be a part): as above

titre of phage after biopanning [1]: 7.2e+09
titre of phage after biopanning [2]: 2.16e+09
IC50 (IL-1R1): 0.28 nM
titre of phage after biopanning [3]: 3.84e+08
titre of phage after biopanning [4]: 7.2e+09
titre of phage after biopanning [5]: 6.6e+09
titre of phage after biopanning [6]: 1.8e+10
titre of phage after biopanning [7]: 7.8e+09
titre of phage after biopanning [8]: 7.2e+09
titre of phage after biopanning [9]: 2.04e+06
B1: DOM4-130-54 (protein)
VL: DIQMTQSPSSLSASVGDRVTITCRASQDIYLNLDWYQQKPGKAPKLLINFGSELQSGVPSRFSGSGYGTDFTLTISSLQPEDFATYYCQPSFYFPYTFGQGTKVEIKR
